Measured values published in PMC11182496, “Dissecting positive selection events and immunological drives during the evolution of adeno-associated virus lineages” (PLOS Pathogens, 2024).

Legend:
[1] = molecular target: AAV2-G548 capsid (adeno-associated virus 2); test: ELISA; plates coated with 10^9 vector genomes of AAV variants in 0.1 M sodium bicarbonate buffer pH 9.6 overnight at 4°C; antibody serially diluted in PBS with 1% BSA, 37°C for 1.5 hours; anti-mouse IgG-HRP, OD450; EC50 from a sigmoidal fit
[2] = molecular target: AAV2-G548 capsid (adeno-associated virus 2)
[3] = molecular target: AAV2-E548 capsid (wild-type AAV2 capsid) (Adeno-associated virus 2, wild type …, UniProt P03135); test: cell-based or functional assay
Chain of AAV2-E548 capsid (wild-type AAV2 capsid) (P03135 whole entry, looked up, the tested form may be a part): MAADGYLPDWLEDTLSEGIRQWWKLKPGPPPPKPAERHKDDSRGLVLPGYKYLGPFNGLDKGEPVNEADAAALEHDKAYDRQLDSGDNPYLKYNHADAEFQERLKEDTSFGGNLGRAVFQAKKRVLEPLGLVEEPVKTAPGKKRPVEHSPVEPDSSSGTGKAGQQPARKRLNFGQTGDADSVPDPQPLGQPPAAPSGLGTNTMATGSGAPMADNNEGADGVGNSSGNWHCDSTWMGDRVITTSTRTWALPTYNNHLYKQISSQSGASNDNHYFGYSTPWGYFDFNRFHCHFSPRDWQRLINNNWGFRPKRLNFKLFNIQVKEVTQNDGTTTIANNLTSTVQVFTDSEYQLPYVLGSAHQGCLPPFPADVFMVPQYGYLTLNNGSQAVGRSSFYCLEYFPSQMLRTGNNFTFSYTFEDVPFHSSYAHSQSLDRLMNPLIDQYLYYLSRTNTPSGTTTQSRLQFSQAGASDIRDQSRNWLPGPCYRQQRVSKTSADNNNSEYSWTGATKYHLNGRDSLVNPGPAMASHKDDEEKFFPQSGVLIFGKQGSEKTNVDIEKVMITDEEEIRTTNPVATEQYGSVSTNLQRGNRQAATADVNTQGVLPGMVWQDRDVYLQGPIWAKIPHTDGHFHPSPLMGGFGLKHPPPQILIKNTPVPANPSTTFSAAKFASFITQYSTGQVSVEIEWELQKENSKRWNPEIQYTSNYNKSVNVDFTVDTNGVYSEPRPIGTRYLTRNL

B1: mouse monoclonal antibody A20 (antibody, V domains shown)
VH: DVQLQESGPDLVKPSQSLSLTCTVTGYSITSGYTWHWIRQFPGNKQEWMGYIHFSGYTNYNPSLKSRVSITRDTSKNQFFLHLNSVTTEDTATYYCARGDYGYEWFTYWGQGTLVTVSA
VL: DIQMTQSSSSFSVSLGDRVTITCKASEDIHNRLAWYKQKPGNAPRLLISGATSLETGVPSRFSGSGSGKDYTLSITSLQNEDVATYYCQQYWIGPFTFGSGTNLEIK
OD450 at the highest A20 concentration (10 μg/ml) [1]: 0.132 OD450
neutralization of the lacZ AAV vector's transduction of 293 cells (β-galactosidase assay), average IC50 [2]: 0.201 µg/mL
neutralization of the lacZ AAV vector's transduction of 293 cells (β-galactosidase assay), average IC50 [3]: 0.2 µg/mL
